Values of other authors, collected in patent US20250333489A1 (ANDREMACON S.R.L., priority 2021, published 2025).

Target: T1, EphB4 (Homo sapiens, UniProt P54760)
T1 sequence (P54760 16-987): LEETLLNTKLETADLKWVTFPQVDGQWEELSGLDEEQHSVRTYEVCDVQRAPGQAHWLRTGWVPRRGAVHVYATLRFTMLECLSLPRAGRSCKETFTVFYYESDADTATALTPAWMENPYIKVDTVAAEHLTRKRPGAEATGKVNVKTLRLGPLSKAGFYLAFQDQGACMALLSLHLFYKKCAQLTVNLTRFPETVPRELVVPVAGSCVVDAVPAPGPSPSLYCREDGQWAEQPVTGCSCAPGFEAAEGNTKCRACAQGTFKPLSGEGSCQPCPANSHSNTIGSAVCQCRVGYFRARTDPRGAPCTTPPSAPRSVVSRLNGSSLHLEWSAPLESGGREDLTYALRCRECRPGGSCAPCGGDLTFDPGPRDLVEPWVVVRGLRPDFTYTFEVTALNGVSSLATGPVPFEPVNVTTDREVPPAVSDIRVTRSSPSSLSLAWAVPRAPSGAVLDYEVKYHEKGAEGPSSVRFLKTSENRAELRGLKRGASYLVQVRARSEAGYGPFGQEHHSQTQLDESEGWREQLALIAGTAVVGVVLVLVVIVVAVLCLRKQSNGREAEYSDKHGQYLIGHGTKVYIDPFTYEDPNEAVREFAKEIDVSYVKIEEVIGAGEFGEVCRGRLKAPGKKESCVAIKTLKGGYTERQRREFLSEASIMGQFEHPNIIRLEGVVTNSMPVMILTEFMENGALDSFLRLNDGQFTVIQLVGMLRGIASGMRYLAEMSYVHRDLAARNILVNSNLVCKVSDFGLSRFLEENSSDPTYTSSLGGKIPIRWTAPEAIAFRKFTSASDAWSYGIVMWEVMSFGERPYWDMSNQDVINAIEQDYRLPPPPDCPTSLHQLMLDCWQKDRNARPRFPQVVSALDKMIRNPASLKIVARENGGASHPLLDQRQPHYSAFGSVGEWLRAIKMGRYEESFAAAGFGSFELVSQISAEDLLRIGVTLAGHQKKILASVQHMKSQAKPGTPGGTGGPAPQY
Settings: read-out: binding affinity of Epo for EphB4 (KD)

Kd: 880 nM
Substance: Epo: 30.4 kDa glycoprotein produced and secreted mainly by the kidneys; main erythropoietic hormone
